This is an account of results in the DeepSol protein solubility set.

The data set can be described thus: soluble on expression in E. coli; label from the status in PepcDB or PDB records.
As for “GSHMPTAIESCMVKFELSSSKWHMTSPKPHCVNTTSDGKLKILQSGTYLIYGQVIPVDKKYIKDNAPFVVQIYKKNDVLQTLMNDFQILPIGGVYELHAGDNIYLKFNSKDHIQKTNTYWGIILMPDLPFIS”, the “soluble on expression in E. coli” value is “soluble”.
Regarding “MGSDKIHHHHHHAKNVLKAWLVDNTVTTDDKTDKIFQLETTRSIDKEIILDRMVAKNPGVRRETMALGIELMEEVVAEALMNGESVNTGLFRGVAQFRGVAKQNAWDAATNSIYVSLTQGKALREAIKDTRVDVLGERPTKFYIGSGQDATTRATDFSATAGRNFTLFGKNLTVAGTDPSVGVTLASAATGTVTKIDNDMIVLNEPSRLIILLPASLEDGEYMLTVTTQYRGGGGALLKTPRSTSHTIYIGGAPETGGSTGPPGDSDGDLNENPLG”, the “soluble on expression in E. coli” value was “not soluble”.
The result for “MIDSIRVEGFRGLKELELSSLRRINVIVGRNNSGKSTLLEALSLFLGSSDPGTFGNVLHEILIWRGWYGIQTVDDLFYNGGDSFSISSTGKTLEALNSKHSLEFKLNGEPFYKIDRESIRRLASQAVLLARFSPKENFEFLTPLTFRRFGYAESLYSYAYERKVVKDSIKVLNEAYPEVEGFSPLLKEDNWVLYVETKYGVYPYYLMGEGFKSAMIISFLSSLLRDGVLLIDSAEAFHHPKSLKVMIQTLVRGSEKNNVQVFLTTHSLELLDLMLEMGRDGFVIYMKNVEGRIEVESIEFQRASELRESIGVDLRGFLEHHHHHH” reads “soluble”.
In the case of “SLIDFHFHAPVKEFLDFLGEFGEPAIKYFNAKVEVKGLKETLDYYESFGIKRFVVLPIDSTTFLGRRIPNQVINLDDRIVKFISVDPSKPNADEELKRSIKEFEPVGVKLHPQLQGFHPLDERALKIYEIIDNHGLIVVFHTGTSGIGAGVKSSIRLDYGRPIYFDEIAVRFQNMKIILAHFGWPWTEEAIAIALHKPNVYLDLSGWAPRYIPQVIWSNAKRLSDKLLFGSDFPLIRPERWLEEFKSVNLSQDIKDKILKHNAEKLVKKS” it was “soluble”; in that of “MAHHHHHHMFRAARLLRGVSPFSVFLMDQKNNPSLQGVSIAKRGKMLSKMYKELSQQQRRDLQKRAEVHPSLRKSKRARPPRKTEFAEFVRQNYKVVQGLNYRKRFSALSQLYELHKPIEVQVTKALKEAKAKKVTSAKTAVKKAATKSKTAKRAKGGKSTPKKSTGKK”, “soluble”.
The result for “AAYEAELLGRVGLMSHLTRRLHESAKLNPHRVIYAACENPSVLKAAVSARAHGIARPIMLGDEKQIRDFAAELDLSLEGIEIVNYRSDEEKARRHHYARVFAEQNWRRGGNHTEALDKMFDPNYFGMMMVRLGDADAMITGIYSKHSYLAEVAKQTVGLQEGVGHFATMHMVSLKNGPLFLADTLINHNLSAEALVDIAVMAYEKAHCFGVKPVLAIVGFSDFGADSDADSTVEAAKAVAILHEKYPYILVDGEMRVSLALHAEKRDKQYPQNKIKGRNANVLIFPRLSAANACYQLLREADDAEEVLGPIQIGLAKPVYFADHDATVSDILNITAMAVLDSHACLI” reads “soluble”; that for “MSAIENIVISMENATERRKHITKQFESKKLSFSFFNAYTYQSINQSINQSINQSINQSINQSINQSINQSNSILHNIEESRILTKGEKGCLISHFLLWNKCVNENFEYLKIFEDDVILGENAEVFLNQNEWLKTRFDFNDIFIIRLETFLQPVKLEKQTKIPPFNSRNFDILKSTHWGTAGYIISQGAAKYVIEYLKNIPSDEIVAVDELIFNKLVDVDNYIVYQLNPAICIQELQANQSKSVLTSGLEKERQKRSKIRKKKTLKQRLTRIKENIIRALNRKKWKEQQRIKEMQGKEIVRFMLEHHHHHH”, “not soluble”; that for “MRAIIIGIGQCGTKIADIFSLVDFEALAINTSKSDLEYLKHIPPERRILVGESIVGGKGVNANPLLGREAMKRDLPMVMKKISSLVGYEDVDIFFLTFGFGGGTGAGGTPVLAEALKEEYPDSLVVAIGALPLKEEGIRPTINAAITIDKLSRIVDSIIAIDNNKLKESDEDISQAYEKINYAIVERIASLLALIDVPGEQTLDASDLKFVLRAMGSFATVGYAKADATKIKSLSRLIIRSFENEGLYLDVNLESALYGLVAIHGPPEVLKAKEIFDALSELSQRIRGKQIFRGFYPDPREREVEVVTLLSGIYESKSIENIVITAKRYAREFMKAKEEGEMKKRELLKGLPDFEDIYPGEVDEG”, “soluble”.
For the sequence “MKIAIPKERRPGEDRVAISPEVVKKLVGLGFEVIVEQGAGVGASITDDALTAAGATIASTAAQALSQADVVWKVQRPMTAEEGTDEVALIKEGAVLMCHLGALTNRPVVEALTKRKITAYAMELMPRISRANSMDILSSQSNLAGYRAVIDGAYEFARAFPMMMTAAGTVPPARVLVFGVGVAGLQAIATAKRLGAVVMATDVRAATKEQVESLGGKFITVDDEAMKTAETAGGYAKEMGEEFRKKQAEAVLKELVKTDIAITTALIPGKPAPVLITEEMVTKMKPGSVIIDLAVEAGGNCPLSEPGKIVVKHGVKIVGHTNVPSRVAADASPLFAKNLLNFLTPHVDKDTKTLVMKLEDETVSGTCVTRDGAIVHPALTGQGA”, the “soluble on expression in E. coli” value is “soluble”.
The result for “SPVYGVKAVPVERIRANSYNPNVTAPPEMRLLELSIWEDGYTMPCVCYYIEKEDVYELVDGYHRYKVMMTSPRIYKRENGLLPVTVIRKDLAERMASTIRHNRARGMHK” reads “soluble”; that for “MALDLTGYLDRINYRGATDPTLDVLRDLVSAHTGAIAFENLDPLMGVPVDDLSAEALADKLVDRRRGGYCYEHNGLIGYVLAELGYRVRRLAGRVVWLAPPDAPTPAQTHTVLAVTFPGCQGPYLVDVGFGGMTPTAPLRLETGTVQQTALEPYRLDDRGDGLVLQAMVRDEWQALYEFSTLTRPQVDLRVGSWFVSTHPTSHFVTGLMAATVADDARWNLMGRNLAIHRRGGTEKILLEDAAAVVDTLGDRFGINVADVGERGRLEARIDKVCFGAENR”, “soluble”; that for “MGSDKIHHHHHHMERRTILVTGASGFVGGALCRQLATLGSFAIRAASRDLGGASVAGIQAVTVADLSATTDWARALSGVDLVVHAAARVHVMKETASDSLAEFRRVNVDGTLNLARQAAAAGVRRFIFISSIKVNGESSQPGQPLRADDSPAPQDAYGVSKHEAEQGLRQLAAATGMEVVVIRPVLVYGPGVKANFHSMMRWLQRGVPLPFGAVCNRRSLVSLANLVDLVVTCIDHPRAANQTFLASDGDDVSLTQLLRALGLALGRPARLLPVPAGLLRGAVLLIGRRDLAQRLFGTLQVDIEKNRQLLGWYPPCTLEQGLNMTARSFLGARRP”, “not soluble”.
In the case of “MGHHHHHHSHMCYNRESNFANQTIDFYCYTEYNGFMTTKGANVMTEVEMKEQVQEVLDKLRPFLLRDGGDCELVDVDEGIVKLRLLGACGSCPSSTITLKAGIERALLEEVPGVVEVEQVF” it was “soluble”; in that of “MKRGEELPPLEIEVTRTLIVAGAIASRDYQDVHHDAESARRRGSPDIFMNILTTNGLVGRYITDHFGPGAVLRKVAIRLGAPNYPGDTMVLTGTVVEVEGDTATVKVIGANGIGTHVRGTVTVTVPPGSASLEHHHHHH”, “not soluble”.
The result for “MGSDKIHHHHHHMSPRKPRSPTAPNSSASIAPIPRLMPKLFVLDSNVLMHDPTSLFRFQEHDIYITMTTLEELDNNKKGMSEVARNARQTSRFLDEIVSSAITDIDEGISLQLHGTKNATGRLFLQTQAITNVLPVYLASGSADNQIIGAVKFLHDTHQNRVVTLVSKDINMRIKARALGLAAEDYFNDKVLEDTDVLFSGIQELPEDFWDEHGKDMESWQQSGQTFYRVTGPLAGGFVINQFVYLEHDKPFYAQVKETSGRTAVLQTLKDYTHQKNNVWGITARNREQNFAFNLLMNPEVDFVTLLGQAGTGKTLLTLAAGLMQTLEHKVYSEIIMTRVTVPVGEDIGFLPGTEEEKMTPWMGALEDNLDVLNKTDSSAGEWGRAATLDLIRSRIKIKSLNFMRGRTFINKFLIIDEAQNLTPKQMKTLITRAGPATKVVCLGNIAQIDTPYLSEGSSGLTYVVDRFKGWNHSGHVTLQRGERSRLADYAAEIL” reads “not soluble”; that for “MDIISKSGEGNKYTINSAIAFVAYASHIDINTTEFSKVLSGLRDFINDEAIRLGGKISDGSFNKCNGDWYEWLIGIRAIEFFLESETNFIVVKMPNATSFDVMSIYKSCLSEFIYDLRSKLSLNNVNLITSNPDFSIIDIRGRREELKSMLKDISFSNISLSTISEIDNLYKNFIDYAELEHIKSFLSVKTTFRPDRRLQLAHEGSLMKALYTHLQTRTWTINPTGIRYYAAATSIGNADVIGLKTVATHSITDVKSLPQSAVDEIFKINSVLDVDSCLSHILSS”, “soluble”; that for “MSLEQPGQPPAHSLVSLRGSGHHVAIVDRSDGRLLGTIDSARAASQVHPGAVYLHQGETFVIEELDDQVALAVPDQPDYQTFARSTTDIRIVGEVDKVCNPAPGLWVSNLVVEVTDRVVGYTMKASDGSVLAMVPLQMPPQTLVTRAVAYTVDPLVLDSLGITDVPGALHAAEHAAIGLLPLIATCDRWDIGGVSTAEHPDTGLPTVFVYDGHPGGAGFADCGYERFPEWVATTFEAIRSCQCESGCPSCVQSPKCGNGNDPLSKEGAIALLGAMCTMLGVTEGHHHHHH”, “not soluble”.
Consider “MATYLIGDVHGCYDELIALLHKVEFTPGKDTLWLTGDLVARGPGSLDVLRYVKSLGDSVRLVLGNHDLHLLAVFAGISRNKPKDRLTPLLEAPDADELLNWLRRQPLLQIDEEKKLVMAHAGITPQWDLQTAKECARDVEAVLSSDSYPFFLDAMYGDMPNNWSPELRGLGRLRFITNAFTRMRFCFPNGQLDMYSKESPEEAPAPLKPWFAIPGPVAEEYSIAFGHWASLEGKGTPEGIYALDTGCCWGGSLTCLRWEDKQYFVQPSNRHKDLGEGEAVAS”, for which the “soluble on expression in E. coli” value is given as “soluble”.
The result for “MSLRYLRFLTAGESHGKGLTAILEGIPANLPLSEEEINHELRRRQRGYGRGGRMKIEKDTAEILSGVRFGKTLGSPIALFIRNRDWENWKEKMAIEGEPSPSVVPFTRPRPGHADLSGGIKYNQRDLRNILERASARETAARVAVGAVCKKFLSEFGIKIGSFVVSIGQKEVEELKDKSYFANPEKLLSYHEKAEDSELRIPFPEKDEEFKTYIDEVKEKGESLGGVFEVFALNVPPGLGSHIQWDRRIDGRIAQAMMSIQAIKGVEIGLGFEAARRFGSQVHDEIGWSEGKGYFRHSNNLGGTEGGITNGMPIVVRVAMKPIPTLKNPLRSVDIETKEEMKAGKERTDIVAVPAASVVGEAMLAIVLADALLEKLGGDFMEEVKKRFEDYVNHVKSF” reads “soluble”; that for “MRLDHLRLQNFRCYEDAHFDFQPGFNLVVGVNGSGKTSLLLGVAECLIPYGNAMGQGQEILSKEDVRFVIDRHEGRSRFERKFPVFIRADGDIFDLPNWRAVRLLEPWEGGVDPSSLSHLSAVLARNNAGEQIDFPVLAFYRANRRWSSARISAEFAAQQRTSRFDGYANWFDAVADLRDFESWLIARTLERLQDRLDSTPTVEREDELEWVNRAIRLAIPDAHDLRYDLRLQSLLVDMGEGNAVPFHELSDGQRSLIALIADIARRMCVLNPHIGKDVLANTGGIVIIDELDIHLHPAWQRNIAPTLKKAFPKVQFIATSHSPQVIGSLQPGEVILLKNGDSSHPRATYGLDSSTILEEVMGVPQREPEIEVLLDELFSTLENNELEKARLQLDALKKKAPDLPEFAGAEALLKRKELIGRLEHHHHHH”, “soluble”.
